# Measurements: IntAct's records for PubMed 31515488
# B1: RUN and FYVE domain-containing protein 1 (Homo sapiens), Q96T51-2 (parent)
# chain: MMEERANLMHMMKLSIKVLLQSALSLGRSLDADHAPLQQFFVVMEHCLKHGLKVKKSFIGQNKSFFGPLELVEKLCPEASDIATSVRNLPELKTAVGRGRAWLYLALMQKKLADYLKVLIDNKHLLSEFYEPEALMMEEEGMVIVGLLVGLNVLDANLCLKGEDLDSQVGVIDFSLYLKDVQDLDGGKEHERITDVLDQKNYVEELNRHLSCTVGDLQTKIDGLEKTNSKLQEELSAATDRICSLQEEQQQLREQNELIRERSEKSVEITKQDTKVELETYKQTRQGLDEMYSDVWKQLKEEKKVRLELEKELELQIGMKTEMEIAMKLLEKDTHEKQDTLVALRQQLEEVKAINLQMFHKAQNAESSLQQKNEAITSFEGKTNQVMSSMKQMEERLQHSERARQGAEERSHKLQQELGGRIGALQLQLSQLHEQCSSLEKELKSEKEQRQALQRELQHEKDTSSLLRMELQQVEGLKKELRELQDEKAELQKICEEQEQALQEMGLHLSQSKLKMEDIKEVNQALKGHAWLKDDEATHCRQCEKEFSISRRKHHCRNCGHIFCNTCSSNELALPSYPKPVRVCDSCHTLLLQRCSSTAS
# partner: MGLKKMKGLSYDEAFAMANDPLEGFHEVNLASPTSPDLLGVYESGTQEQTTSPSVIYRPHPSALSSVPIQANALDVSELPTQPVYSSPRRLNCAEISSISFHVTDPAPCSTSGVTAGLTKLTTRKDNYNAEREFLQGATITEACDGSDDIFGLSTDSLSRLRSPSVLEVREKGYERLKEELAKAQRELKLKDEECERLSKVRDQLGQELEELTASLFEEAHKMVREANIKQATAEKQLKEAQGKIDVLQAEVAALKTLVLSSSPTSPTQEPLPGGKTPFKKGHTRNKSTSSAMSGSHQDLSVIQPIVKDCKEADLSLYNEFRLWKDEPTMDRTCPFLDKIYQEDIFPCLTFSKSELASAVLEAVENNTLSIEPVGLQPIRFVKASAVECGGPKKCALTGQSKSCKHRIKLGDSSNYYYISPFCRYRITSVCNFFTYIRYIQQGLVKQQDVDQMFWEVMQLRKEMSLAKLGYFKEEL
# B2: Carboxy-terminal domain RNA polymerase II polypeptide A small phosphatase 1 (Homo sapiens), Q9GZU7 (parent)
# chain: MDSSAVITQISKEEARGPLRGKGDQKSAASQKPRSRGILHSLFCCVCRDDGEALPAHSGAPLLVEENGAIPKQTPVQYLLPEAKAQDSDKICVVIDLDETLVHSSFKPVNNADFIIPVEIDGVVHQVYVLKRPHVDEFLQRMGELFECVLFTASLAKYADPVADLLDKWGAFRARLFRESCVFHRGNYVKDLSRLGRDLRRVLILDNSPASYVFHPDNAVPVASWFDNMSDTELHDLLPFFEQLSRVDDVYSVLRQPRPGS
# B3: Fructose-1,6-bisphosphatase 1 (Homo sapiens), P09467 (parent)
# chain: MADQAPFDTDVNTLTRFVMEEGRKARGTGELTQLLNSLCTAVKAISSAVRKAGIAHLYGIAGSTNVTGDQVKKLDVLSNDLVMNMLKSSFATCVLVSEEDKHAIIVEPEKRGKYVVCFDPLDGSSNIDCLVSVGTIFGIYRKKSTDEPSEKDALQPGRNLVAAGYALYGSATMLVLAMDCGVNCFMLDPAIGEFILVDKDVKIKKKGKIYSLNEGYARDFDPAVTEYIQRKKFPPDNSAPYGARYVGSMVADVHRTLVYGGIFLYPANKKSPNGKLRLLYECNPMAYVMEKAGGMATTGKEAVLDVIPTDIHQRAPVILGSPDDVLEFLKVYEKHSAQ
# partner: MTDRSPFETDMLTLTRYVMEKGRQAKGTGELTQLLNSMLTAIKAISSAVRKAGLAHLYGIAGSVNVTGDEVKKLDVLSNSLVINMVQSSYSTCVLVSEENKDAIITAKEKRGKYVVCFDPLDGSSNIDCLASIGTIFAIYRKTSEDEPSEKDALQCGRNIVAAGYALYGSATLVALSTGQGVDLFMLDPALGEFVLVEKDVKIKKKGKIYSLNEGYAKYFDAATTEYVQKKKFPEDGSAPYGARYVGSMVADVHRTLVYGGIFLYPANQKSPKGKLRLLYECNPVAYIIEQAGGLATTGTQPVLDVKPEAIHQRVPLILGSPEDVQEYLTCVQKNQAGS
# B4: Spermatogenesis-associated protein 2 (Homo sapiens), Q9UM82 (parent)
# chain: MGKPSSMDTKFKDDLFRKYVQFHESKVDTTTSRQRPGSDECLRVAASTLLSLHKVDPFYRFRLIQFYEVVESSLRSLSSSSLRALHGAFSMLETVGINLFLYPWKKEFRSIKTYTGPFVYYVKSTLLEEDIRAILSCMGYTPELGTAYKLRELVETLQVKMVSFELFLAKVECEQMLEIHSQVKDKGYSELDIVSERKSSAEDVRGCSDALRRRAEGREHLTASMSRVALQKSASERAAKDYYKPRVTKPSRSVDAYDSYWESRKPPLKASLSLRKEPVATDVGDDLKDEIIRPSPSLLTMASSPHGSPDVLPPASPSNGPALLRGTYFSTQDDVDLYTDSEPRATYRRQDALRPDVWLLRNDAHSLYHKRSPPAKESALSKCQSCGLSCSSSLCQRCDSLLTCPPASKPSAFPSKASTHDSLAHGASLREKYPGQTQGLDRLPHLHSKSKPSTTPTSRCGFCNRPGATNTCTQCSKVSCDACLSAYHYDPCYKKSELHKFMPNNQLNYKSTQLSHLVYR
# B5: Emerin (Homo sapiens), P50402 (parent)
# chain: MDNYADLSDTELTTLLRRYNIPHGPVVGSTRRLYEKKIFEYETQRRRLSPPSSSAASSYSFSDLNSTRGDADMYDLPKKEDALLYQSKGYNDDYYEESYFTTRTYGEPESAGPSRAVRQSVTSFPDADAFHHQVHDDDLLSSSEEECKDRERPMYGRDSAYQSITHYRPVSASRSSLDLSYYPTSSSTSFMSSSSSSSSWLTRRAIRPENRAPGAGLGQDRQVPLWGQLLLFLVFVIVLFFIYHFMQAEEGNPF
# partner: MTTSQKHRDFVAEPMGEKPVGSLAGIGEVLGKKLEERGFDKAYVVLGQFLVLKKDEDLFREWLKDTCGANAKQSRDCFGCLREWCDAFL
# Variants of: B1
# Details: with rab3i_human RAB3IP
row,Variant,effect of a mutation on the interaction
1,MMEERANLMHMMKLSIKVLLQSALSLGRSLDADHAPLQQFFVVMEHCLKHGLKVKKSFIGQNKSFFGPLELVEKLCPEASDIATSVRNLPELKTAVGRGRAWLYLALMQKKLADYLKVLIDNKHLLSEFYEPEALMMEEEGMVIVGLLVGLNVLDANLFLKGEDLDSQVGVIDFSLYLKDVQDLDGGKEHERITDVLDQKNYVEELNRHLSCTVGDLQTKIDGLEKTNSKLQEELSAATDRICSLQEEQQQLREQNELIRERSEKSVEITKQDTKVELETYKQTRQGLDEMYSDVWKQLKEEKKVRLELEKELELQIGMKTEMEIAMKLLEKDTHEKQDTLVALRQQLEEVKAINLQMFHKAQNAESSLQQKNEAITSFEGKTNQVMSSMKQMEERLQHSERARQGAEERSHKLQQELGGRIGALQLQLSQLHEQCSSLEKELKSEKEQRQALQRELQHEKDTSSLLRMELQQVEGLKKELRELQDEKAELQKICEEQEQALQEMGLHLSQSKLKMEDIKEVNQALKGHAWLKDDEATHCRQCEKEFSISRRKHHCRNCGHIFCNTCSSNELALPSYPKPVRVCDSCHTLLLQRCSSTAS [C159F],with no effect

# Variants of: B2
# Details: with mbp_human MBP
row,Variant,effect of a mutation on the interaction
1,MDSSAVITQISKEEARGPLRGKGDQKSAASQKPRSRGILHSLFCCVCRDDGEALPTHSGAPLLVEENGAIPKQTPVQYLLPEAKAQDSDKICVVIDLDETLVHSSFKPVNNADFIIPVEIDGVVHQVYVLKRPHVDEFLQRMGELFECVLFTASLAKYADPVADLLDKWGAFRARLFRESCVFHRGNYVKDLSRLGRDLRRVLILDNSPASYVFHPDNAVPVASWFDNMSDTELHDLLPFFEQLSRVDDVYSVLRQPRPGS [A56T],with no effect

# Variants of: B3
# Details: with FBP2, O00757
row,Variant,effect of a mutation on the interaction
1,MADQAPFDTDVNTLTRFVMEEGRKARGTGELTQLLNSLCTAVKAISSAVRKAGIAHLYGIAGSTNVTGDQVKKLDVLSNDLVMNMLKSSFATCVLVSEEDKHAIIVEPEKRGKYVVCFDPLDGSSNIDCLVSVGTIFGIYRKKSTDEPSEKDALQPGRNLVAAGYALYGSATMLVLAMDCGVNCFMLDPAIGEFILVDKDVKIKKKGKIYSLNEGYARDFDPAVTEYIQRKKFPPDNSAPYGARYVGSMVADVHRTLVYRGIFLYPANKKSPNGKLRLLYECNPMAYVMEKAGGMATTGKEAVLDVIPTDIHQRAPVILGSPDDVLEFLKVYEKHSAQ [G260R],disrupting interaction strength

# Variants of: B4
# Details: with traf2_human TRAF2, Q12933
# Sequence of traf2_human TRAF2, Q12933 (Q12933 whole entry): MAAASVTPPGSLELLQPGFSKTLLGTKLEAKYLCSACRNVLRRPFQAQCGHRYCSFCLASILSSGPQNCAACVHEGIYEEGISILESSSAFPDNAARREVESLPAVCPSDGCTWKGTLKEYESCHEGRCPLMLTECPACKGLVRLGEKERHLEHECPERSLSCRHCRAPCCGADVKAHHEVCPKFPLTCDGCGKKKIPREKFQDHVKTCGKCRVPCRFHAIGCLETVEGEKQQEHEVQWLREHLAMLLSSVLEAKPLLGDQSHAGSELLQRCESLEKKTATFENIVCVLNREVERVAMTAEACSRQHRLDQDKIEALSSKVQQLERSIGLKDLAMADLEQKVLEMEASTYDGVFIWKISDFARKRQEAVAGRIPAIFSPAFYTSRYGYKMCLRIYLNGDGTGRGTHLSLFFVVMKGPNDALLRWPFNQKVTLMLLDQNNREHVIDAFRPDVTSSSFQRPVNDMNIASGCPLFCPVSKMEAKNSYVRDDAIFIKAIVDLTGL
row,Variant,effect of a mutation on the interaction
1,MGKPSSMDTKFKDDLFRKYVQFHESKVDTTTSRQRPGSDECLRVAASTLLSLHKVDPFYRFRLIQFYEVVESSLRSLSSSSLRALHGAFSMLETVGINLFLYPWKKEFRSIKTYTGPFVYYVKSTLLEEDIRAILSCMGYTPELGTAYKLRELVETLQVKMVSFELFLAKVECEQMLEIHSQVKDKGYSELDIVSERKSSAEDVRGCSDALRRRAEGREHLTASMSRVALQKSASERAAKDYYKPRVTKPSRSVDAYDSYWESRKPPLKASLSLRKEPVATDVGDDLKDEIIRPSPSLLTMASSPHGSPDVLPPASPSNGPALLRGTYFSTQDDVDLYTDSEPRATYRRQDALRPDVWLLRNDAHSLYHKRSPPAKESALSKCQSCGLSCSSSLCQRCDSLLTCPPASKPSAFPSKASTHDSLAHGASLREKYPGQTQGLDRFPHLHSKSKPSTTPTSRCGFCNRPGATNTCTQCSKVSCDACLSAYHYDPCYKKSELHKFMPNNQLNYKSTQLSHLVYR [L443F],disrupting interaction strength

# Variants of: B5
# Details: with baf_human BANF1, O75531
row,Variant,effect of a mutation on the interaction
1,MDNYADLSDTELTTLLRRYNIPHGPVVGSTRRLYEKKIFEYETQRRRLSPPSSSAASSYSFSDLNSTRGDADMYDLPKKEDALLYQSKGYNDDYYEESYFTTRTYGEPESAGPSRAVRQSVTSFPDADAFHHQVHDDDLLSSSEEECKDRERPMYGRDSAYQSITHYRPVSASRSSLDLSYYPTSSSTSFMSSSSSSSSWLTHRAIRPENRAPGAGLGQDRQVPLWGQLLLFLVFVIVLFFIYHFMQAEEGNPF [R203H],with no effect
2,MDNYADLSDTELTTLLRRYNIPHGPVVGSTRRLYEKKIFEYETQRRRLSPPSSSAASSYSFSDLNSTRGDADMYDLPKKEDALLYQSKGYNDDYYEESYFTTRTYGEPESAGPSRAVRQSVTSFPDADAFHHQVHDDDLLSSSEEECKDRERPMYSRDSAYQSITHYRPVSASRSSLDLSYYPTSSSTSFMSSSSSSSSWLTRRAIRPENRAPGAGLGQDRQVPLWGQLLLFLVFVIVLFFIYHFMQAEEGNPF [G156S],with no effect
